Positions count from the first letter of the chain named. One block for each binder: values may come before it.
Columns and labels:
[1] = target: T1, Membrane-bound human uPAR on cells (human, UniProt Q03405 23-305); test: in vivo imaging, 2 nmol labelled IgG, 48 hours after injection
T1 construct: whole, on cells; Also used for endogenous uPAR in H1299 lysates (co-immunoprecipitation) and in tumor xenografts and sections; also called cell surface uPAR; CD87

[2] = target: T2, Human soluble uPAR (residues 1-277) (human, UniProt Q03405 23-299); test: equilibrium SPR (Biacore 1000), IgG immobilized on a CM5 chip, soluble uPAR as analyte, one site binding model
T2 construct: also called soluble human uPAR
T2 sequence (Q03405 23-299): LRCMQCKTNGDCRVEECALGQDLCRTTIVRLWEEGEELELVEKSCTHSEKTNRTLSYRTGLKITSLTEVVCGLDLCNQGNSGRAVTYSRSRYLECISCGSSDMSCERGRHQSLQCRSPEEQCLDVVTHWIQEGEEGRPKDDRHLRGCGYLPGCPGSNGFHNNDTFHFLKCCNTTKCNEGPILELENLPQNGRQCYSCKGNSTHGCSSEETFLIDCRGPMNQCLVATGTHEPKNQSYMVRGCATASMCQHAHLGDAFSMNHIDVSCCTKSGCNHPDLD

[3] = target: T2, Human soluble uPAR (residues 1-277); test: equilibrium SPR (Biacore), IgG immobilized, soluble uPAR as analyte (FIG. 4)

T1 sequence (Q03405 23-305): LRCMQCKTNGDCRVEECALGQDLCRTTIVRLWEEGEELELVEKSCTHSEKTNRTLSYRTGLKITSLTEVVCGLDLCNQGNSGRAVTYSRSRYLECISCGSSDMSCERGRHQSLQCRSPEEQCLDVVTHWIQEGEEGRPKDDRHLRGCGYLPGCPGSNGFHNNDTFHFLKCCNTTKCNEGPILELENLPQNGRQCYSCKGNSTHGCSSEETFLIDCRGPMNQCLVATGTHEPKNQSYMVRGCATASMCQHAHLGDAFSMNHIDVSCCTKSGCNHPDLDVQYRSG

binding result [1]: binds
B1: 3C6 IgG (antibody, V domains shown)
VH: QVQLQQWGAGLLKPSETLSLTCAVYGGSFSGYYWSWIRQPPGKGLEWIGEINHSGSTNYNPSLKSRVTISVDTSKNQFSLKLSSVTAADTAVYYCARGRRFGDFDYWGQGTLVTVSS
VL: QPVLTQPPSVSVAPGKTARITCGGNNIGSKSVHWYQQKPGQAPVLVVYDDSDRPPGIPERFSGSNSGNTATLTISRVEAGDEADYYCQVWDSSSDHSPFGTGTKVTVLG
notes: not shown: IgG constant region; the making of 3C6 IgG is not described

Kd [2]: 9.2 nM
B2: 2E9 IgG (antibody, V domains shown)
VH: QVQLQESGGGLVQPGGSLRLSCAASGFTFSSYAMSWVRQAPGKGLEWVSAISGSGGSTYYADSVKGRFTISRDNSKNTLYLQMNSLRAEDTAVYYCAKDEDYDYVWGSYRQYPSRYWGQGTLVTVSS
VL: QSVLTQPPSVSVSPGQTASITCSGDNLGYKYASWYQQKPGQSPVLIIYQDKKRPSGIPERFSGSNSGNTATLTISGTQAMDEADYYCQAWDSSTSVVFGGGTKLTVLG
notes: also called 2E9 IgG1; not shown: human IgG1 constant region of vector pTT5-SP-H1

Kd [2]: 23.8 nM
B3: 1A8 IgG (antibody, V domains shown)
VH: QVQLQQSGPGLVKPSQTLSLTCAISGDSVSSNSAAWNWIRQSPSRGLEWLGRTYYRSKWYNDYAVSVKSRITINPDTSKNQFSLQLNSVTPEDTAVYYCTRDPGGALDDSFDIWGQGTMVTVSS
VL: DVVMTQSPASLSVSVGDRVTLTCQASQVINNHLNWYQQQPGKAPKLLVYDASNLETGVPSRFSGSGSGTDFTFTISGLQPEDIATYYCQQSDNLPLTFGGGTKLEIKR
notes: also called 1A8 IgG1; not shown: human IgG1 constant region of vector pTT5-SP-H1

Kd [3]: ~40.5 nM | Kd [2]: 40.5 nM
B4: 2G10 IgG (antibody, V domains shown)
VH: B3 VH with T72I, T100A, A106P
VL: DVVMTQSPLSLPVTPGEPASISCRSSQSLLRSNGYNYLDWYLQKPGQSPQLLIYLGSIRASGVPDRFSGSGSGTDFTLRISRVEAEDVGVYYCMQALQTPFTFGQGTKLEIKR
modifications: Alexa Fluor 680 (about 15 dyes per IgG) or DOTA-111In in the imaging experiments. It is unlabelled in SPR and flow cytometry.
notes: Used with an Alexa Fluor 680 or 111In-DOTA label in the in vivo imaging; also called 2G10 IgG1; DOTA-2G10 IgG

Source: patent US20130052128A1 (University of California, published 2013)
